According to paper PMC4686876, “Architecture of high-affinity unnatural-base DNA aptamers toward pharmaceutical applications”:

Molecular target: interferon-gamma (IFNγ) (human, UniProt P01579 24-161)
Assay: SPR; method inferred; no citation given with the value; SPR (BIAcore T200, biotinylated aptamer on SA chip), 1x PBS (1 mM KH2PO4, 3 mM Na2HPO4) with 205 mM NaCl final, 0.05% NP-40, pH 7.4, 25 °C; IFNγ 1.25-50 nM
Details: protein: recombinant; chain copies: 2

Chain of interferon-gamma (IFNγ) (P01579 24-161): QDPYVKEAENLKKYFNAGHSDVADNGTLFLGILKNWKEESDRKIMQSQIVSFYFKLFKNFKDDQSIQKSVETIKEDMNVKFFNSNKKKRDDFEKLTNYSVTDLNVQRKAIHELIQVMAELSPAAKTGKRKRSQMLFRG

Binder: TCCACTCGGGTCATTTAATAATGTAGGTATGGGCTAGGCAGCTAGTGGA (structured_DNA) [aptamer 49A]
- Kd: 7.2 nM
